B1: AC-SL028-GGS (AC-Phe-Ser-Arg-Asp-Trp-Thr-Ser-Gly-Gly-Ser-Lys-NH2) (peptide)
peptide: FSRDWTSGGSK
modifications: N-terminal acetyl (AC); C-terminal amide (NH2)
B2: GGS-SL028 (H-Lys-Gly-Gly-Ser-Phe-Ser-Arg-Asp-Trp-Thr-Ser-NH2) (peptide)
peptide: H-KGGSFSRDWTS-NH2
notes: Synthetic peptide, high score cluster B

Target: T1, Recombinant human CD38 protein (R&D, Catalog 2404-AC-010) (human, UniProt P28907 43-300)
T1 construct: In the MST assay the protein was labeled with NT647 (red-maleimide kit) and used at 5 nM; also called purified CD38 protein; purified human CD38 protein
Experiment: MST, NT647-labeled recombinant human CD38 at 5 nM, peptide titrated, 37 C
Protocol: Microscale thermophoresis (MST) assays determined the binding affinity of synthesized peptides to purified CD38 protein and was performed using the Monolith NT.115 (Nanotemper Technologies, Munich, Germany). […] Recombinant human CD38 protein (R&D, Catalog 2404-AC-010, Minneapolis, MN) was labeled with NT647 (Protein labeling kit red-maleimide, Nanotemper Technologies, Germany) and subsequently diluted to 5 nM in MST-2 buffer (50 mM Tris-HCl, pH 7.4, 150 mM NaCl, 10 mM MgCl₂, 2% DMSO, and 0.1% Tween-20). Fluorescence was assessed in MST-2 buffer. Samples were loaded into NT.115 standard capillaries, and analysis was performed at 37° C., 10% LED power, and 40% MST power. The Kd values were calculated from fragment concentration-dependent changes in normalized fluorescence (Fraction Bound) of different CD38 peptides based on the law of mass action using the MO Affinity Analysis v2.3 software.

Row | Binder | Kd [nM]
1 | B1 | 243
2 | B2 | 82.6

Reference: patent US20260273112A1 (WASHINGTON UNIVERSITY, published 2026)
